According to the DeepSol protein solubility set:

test: soluble on expression in E. coli; label from the status in PepcDB or PDB records

Soluble on expression in E. coli, not soluble:
MSGWNVNASSFVPNANARPFVPGQPYTPQPEQAAPEPTEDWEAQADTSPAAVQPEVAEPVAVQESAPVAPVSATEAPKKEPTPEEDLVAPLAKKFQRTVYVDDGTHKEHINMVFVGHVDAGKSTIGGQLMFLTGMVDKRTLEKYEREAKEKGRESWYLSWCMDTNDEEREKGKTVEVGRAYFETEKRHFTILDAPGHKSFVPNMIVGANQADLAVLVISARRGEFETGFDRGGQTREHSMLVKTAGVKHLVILVNKMDDPTVKWEEERFKEIEGKLTPFLRKLGFNPKTDITYVPCSGLTGAFIKDRPTGSEGNWYSGPCFIEFIDVLLPSYKRDFNGPVRCTVAEKYSEMGTVIIGKMESGCVQKGDTLVVMPNKQPVQVLQIWADDVETERVVAGDNIKFKLKGIEENELQGGFIICSPDSLAKTGRVFDAEVLVLEHRSIIASGYSCVLHIQSAVEEVTVKGVIATIDKKTGEKKRAKFVKQDEKCIMRLESPEPFVLEPFKEYPYLGRFTLRDEGKTIAIGKVLKVVE, MGSDKIHHHHHHMNAHTNSQANTNVTNVVFRTHTQPDEAASKKAGRPIFTDIEVCDITFPANRQTRATFPAHDAEPNATRESMANGGGVMTYAQVYNAQYLAYKSGVAQPMGGTPLSEAPFLTESKRRELKALNVHTVEALASLDGMPLKQLGMGGRELKNQAVAYIDNAAGSADVTNLAAQVAILTQQLAEERRMREEFTNAALARRERIKAGEEIEDDEQPEDDEPAELEPEPDDFEPVLPPTFAEIDAMDDEALKVYIAKETGSRPRGNPNRDTLVAAAKELAS, MKAHVLFSGGKDSSLSAIILHNLGYEIQLVTVNFGVLDSYLHAEETAKIIGYSHKVELIDKELIEKSVDMILKDGYPGNGIQFVHKQVLEIISEKYDVIADGTRRDDRVPRLDHSELQSLEMRKNIQYVTPLMGFGHKTLRNLVNNYFIISEKESEELLKSDYETEIRELIRQRGIDPLEYFPKHIQSRVIGLKR, MALACTDSANSTFSRVDSPTSGPSDQLTTHDLDRHIEKLMRCELIAEQDVKTLCAKAREILAEEGNVQVIDSPVTICGDIHGQFYDLMELFKVGGPVPNTNYLFLGDFVDRGFYSVETFLLLLALKARYPDRMMLIRGNHESRQITQVYGFYDECLRKYGNASVWKHCTEVFDYLSLAAVIDGKVFCVHGGLSPSISTMDQIRVIDRKQEVPHDGPMCDLLWSDPEEGNVGWGLSPRGAGYLFGADASKTFCETNGVDLICRAHQLVMEGYKWHFNEKVLTVWSAPNYCYRCGNVAAILELDENLNKEFTIFEAAPQENRGAPAKKPHADYFL, MNRKGYKSGFVSIIGRPNVGKSTFLNRIIGQKIAIMSDKPQTTRNKIQGVYTENDSQVIFIDTPGIHKPKHKLGDFMVKMAQTTLKEVDIVLFMVNAVEGFGRGEEFIIEKLKETKQPVFLVINKIDQVHPEQLLELIDQYRKLHDFAEIVPISALDGNNAEALIGTIKKYLPEGPQYYPDNQVTDHPERFIIAELIREKVLHLTREEVPHSVAVVIDAIQKREGGAVYINATIVVERPSQKGIIIGKQGKMLKEVGKRARFDIEALLGSKVFLEVWVKVQKDWRNKMSQLRDLGFREDEY, MGSDKIHHHHHHMKIPRRLEPLLEDGLIDGVVRQLMSGKEAMVFAVRCGDEIRCAKVYKEANKRSFRQAVDYTENRKTKNSRQARAMAKGSKYGRQMQEAAWQSAEVDALYRLAAAGVRVPTPYNFHEGVLLMELVADADGNAAPRLNDVSFTEGEALAHHQTLIREVVRMLCAGVVHGDLSEFNILVGADGPVIIDLPQAVDAAGNNHAQAMLMRDVHNLRGYFGQFAPALLTTRYAEEIWALYEHGSLHPEVALSGQFECEMPPVDLEGVMREIDDAREQEAARLLRLQELS, MGSDKIHHHHHHMYQNDFVMPKSVYLLNHSVGRPLQSLRQAFDERFFLPWQGSGREPWGDWLSVVEDFRVQLARLFNSETRLFCPQVNLSSGLTKLVQSHSRLRRPGAVILMSENDFPSMGFALRQALPEAEIRFIPANLDVSLAEVWQAHLTDDIDLVFISHAYSNTGQQAPLDYLIPKVRELGALSLVDVAQAAGVLPLDLNALKPDFMLGSSVKWLCGGPGAAYLWVSAAQLVHCSPQDVGWFSHENPFEFDIHDFRYHDSALKFWGGTPSVAPFALAAHSIGYFAELGSDKVRQHNLMQLQRIWRQAGDALVSPSDAARCSGTAILDFGEDQQAVVEALTQADISLDVRKQGMRISPHIYNGEQDLQRLLEALAPFCR, GPGSMIYVSERPMARTFVVFDKDGKPAERPDEYFPLVQMDKEEFVNRRRGHVADENLFAVDGDLILSHLIMGTQIMYDAEKNAVHSCDTGESEADGSIPISVRVLSDEFVVRHESQPDCLAWGSEAPSVYAG, MGSDKIHHHHHHMSFDNLCKLLSEKHPATFASWVLGTPQTSVKVLKTELSIEPIRADYVTFLQLQGRILHLEFQTKLESTPPLPLRMLDYWVRLYRLYRLPITQVVVLLLPPAPGTVIETVFCVETTRHEYRVIRLWEENPELFLNEPALLPLAPLAATTQPQALLQQVVGKVNQLEPRQRPEISAYTQILAGLKYNQDLIRQLFREGMMRESVIYQEILAEGEQLGELRGRKAEGQLLILRQLTRRVGELPQEMLNRIETLSLEQLENLGEALLDFQAIADLEAWFGTLDIGVKMT, MAHHHHHHMSIAKKRLAQERAEWRKDHPAGFSAKYSPMSDGKGLDIMKWICKIPGKKGGLWEGGEYPLTMEFTEDYPSKPPKCKFTTVLFHPNIYPSGTVCLSILNEDEDWKPSITIKQILLGIQDLLDNPNPNSPAQAEPFLLYQQDRDSYEKKVKKQAIEFRPKD, MSLSDILILTHAEFCPPGHLATVLAQRGLDFRVVRADLGQLAGLDAERPRAVAIMGGPMSVNDDLPWLGDELALLRRFIERRIPLLGHCLGGQLLARVLGATVRQQPYTEMGWQPMQRESRDSPWLAHLPERFAIFQWHGDAFDLPQGAERLLSSAWCENQAFSWGGHVLGLQGHPEMTEELVRRWIDGWPQLLDSSQPSQQSREAMLADLPLKVAALNRVAEGFYRHWLSLLREGHHHHHH, MAHHHHHHMILKEFCAEGYERIPEAIAAGAQRVELCARLDVGGVTPSADTIQNTVEYCHSRNAMVMVIIRCREGNFYYSDEEFQVMLKSVILARRLGADGVVFGAIDTLGNVDPRISILLSAAKGMSLTFHMAFDEIPTEKQFQAIDALTAYGFHRILTHGGSASTNIEENLDWLKELVLYAKNRISIMPGGGVTNLNAEKIARDLGVTEVHGTRVVRFV

Soluble on expression in E. coli, soluble:
GSVPVILEVAGIGKYAISIGGERQEGLTEEMVTQLSRQEFDKDNNTLFLVGGAKEVPYEEVIKALNLLHLAGIK, MSEEISLSAEFIDRVKASVKPHWGKLGWVTYKRTYARWLPEKGRSENWDETVKRVVEGNINLDPRLQDSPSLELKQSLTEEAERLYKLIYGLGATPSGRNLWISGTDYQRRTGDSLNNCWFVAIRPQKYGDSKIVPSYLGKQEKAVSMPFSFLFDELMKGGGVGFSVARSNISQIPRVDFAIDLQLVVDETSESYDASVKVGAVGKNELVQDADSIYYRLPDTREGWVLANALLIDLHFAQTNPDRKQKLILDLSDIRPYGAEIHGFGGTASGPMPLISMLLDVNEVLNNKAGGRLTAVDAADICNLIGKAVVAGNVRRSAELALGSNDDQDFISMKQDQEKLMHHRWASNNSVAVDSAFSGYQPIAAGIRENGEPGIVNLDLSKNYGRIVDGYQAGIDGDVEGTNPCGEISLANGEPCNLFEVFPLIAEEQGWDLQEVFALAARYAKRVTFSPYDWEISREIIQKNRRIGISMSGIQDWLLTRLGNRVVTGFKDDFDPETHEAIKVPVYDKRAIKMVDQLYKAVVKADQDYSKTLGCNESIKHTTVKPSGTVAKLAGASEGMHFHYGAYLIQRIRFQDSDPLLPALKACGYRTEADIYTENTTCVEFPIKAVGADNPNFASAGTVSIAEQFATQAFLQTYWSDNAVSCTITFQDSEGDQVESLLRQYRFITKSTSLLPYFGGSLQQAPKEPIDKETYEKRSQEITGNVEEVFSQLNSDVKDLELVDQTDCEGGACPIK, MPFLPPLTPPTELYLGIQLPSPISILVNYLPVSQTPIETLRNLVYSCDINTLAIDEFMTWPSLLQPGSPFRPYFEVLVERGSIPAVYLEGVRQASNFVTVAQGLSVMTTVALSDPFACFATGLFLTCTGNHLDFLPISEKFWEMTPTLEAGHAVAEMVMYHISQLHTENARRWERSWRFVHLPSCVGQCTFHHGCRVCFFYWYAREMAIFY, MGRFAVYEDPFVTKLMNTIGSMTFDGLGFTLLELYRDLVISADNYFMNYVNYGETPHDVGEESIEDPIYGASYPYWWTDLGPTLVLMLYRDYVFTSNREILEKNYNKIKEIIDWLIRKDMDNDCIPDSKGGYDNSYDGTHMYGASSYIASMFLSALTAFIKMSEILDVKIDDKYYRFLECGKKTFNSLWNGKYFILWKKNDEENTSCLNSQLLGQFWCDILGLPPITDHDKINTALRSIYELNFKASKYCLTNAVREDGSVDSSTAQLRSCWPRVSFAVAAHMILRGMVKEGIEVAKREWETIKELNPFDQSSRIDAIDGKYVGLMSYIGSTSVWLLKLALDKIRLEHHHHHH, MNPESRVIRKVLALQNDEKIFSGERRVLIAFSGGVDSVVLTDVLLKLKNYFSLKEVALAHFNHMLRESAERDEEFCKEFAKERNMKIFVGKEDVRAFAKENRMSLEEAGRFLRYKFLKEILESEGFDCIATAHHLNDLLETSLLFFTRGTGLDGLIGFLPKEEVIRRPLYYVKRSEIEEYAKFKGLRWVEDETNYEVSIPRNRIRHRVIPELKRINENLEDTFLKMVKVLRAEREFLEEEAQKLYKEVKKGNCLDVKKLKEKPLALQRRVIRKFIGEKDYEKVELVRSLLEKGGEVNLGKGKVLKRKERWLCFSPEV, MNYPLIFAENQRIETERLILRPVTLADAEDMYEYASDEETVRYVFLKNQTIAETRQNIAKFFMGEPLGKYGIEVKETGKMIGTIDLRVNETNNIGELGYVLNRTFWGNGYMPEAATALVELGFAKMKLMRIFALHDQDNPASGRVMEKIGFTYEGTLPNARISKGKIVTDVYRGMTLETWQNRQK, MNTTVEKQQIITSNTEQWKMYSKLEGKEYQIHISKPKQPAPDSGYPVIYVLDGNAFFQTFHEAVKIQSVRAEKTGVSPAIIVGVGYPIEGAFSGEERCYDFTPSVISKDAPLKPDGKPWPKTGGAHNFFTFIEEELKPQIEKNFEIDKGKQTLFGHSLGGLFALHILFTNLNAFQNYFISSPSIWWNNKSVLEKEENLIIELNNAKFETGVFLTVGSLEREHMVVGANELSERLLQVNHDKLKFKFYEAEGENHASVVPTSLSKGLRFISYV, MGYNKPAAWKPLDRTDWDVSFSYAYGYDEAQFGGRLAVDGDVSTTWFTWGVVSAGECWWATTLPAPTHLTGFSLTRQTTFGSSYNVREAKVKVKKEGDTEWTEAGLFRFGSFKGNDPQYAVFIPAVENVKEFRIDIVSPADFTGFAELDLYQLEHHHHHH, MDLSALREDFPLFAQRPELVYLDSAATSQKPRRVIEALRRYYETLNANVHRGAYRLSAEATEAYEEARRRLARFLNAEPKEIVFVRNTTEAMNLVAYAWGLRNLKEGDEVLVTEMEHHAGLVPWHLVAGLTGAKVKAIPLTEEGRLDLSALEDLLTERTRVVSLVHMSNVLGTINPVAEIARRAKEAGALVVVDGAQSAPHLPVDVKALGADFFALSGHKMLGPTGAGVLWGRYEVLEGMMPFLGGGEMILEVHVDRSTYAPPPQRFEAGTPPIAEAIALGEAACYLMEVGMEKVFAHDRALLDYALKRLEEVPRLRVYGPKGLDRGGVIPFTLGRLHAHDLATFLDQEGIAVRAGHHCAQPLHRKLGLAATARASFYLYNTKEEVDRFVEALLRIEAKYRAWL
